This note sets out measurements from article PMC8424217 (The Journal of Biological Chemistry, 2021).

For assay [1], the target named is T1, rat thoracic aorta rings (Rattus norvegicus, UniProt P49684).
T1 sequence (P49684 1-386): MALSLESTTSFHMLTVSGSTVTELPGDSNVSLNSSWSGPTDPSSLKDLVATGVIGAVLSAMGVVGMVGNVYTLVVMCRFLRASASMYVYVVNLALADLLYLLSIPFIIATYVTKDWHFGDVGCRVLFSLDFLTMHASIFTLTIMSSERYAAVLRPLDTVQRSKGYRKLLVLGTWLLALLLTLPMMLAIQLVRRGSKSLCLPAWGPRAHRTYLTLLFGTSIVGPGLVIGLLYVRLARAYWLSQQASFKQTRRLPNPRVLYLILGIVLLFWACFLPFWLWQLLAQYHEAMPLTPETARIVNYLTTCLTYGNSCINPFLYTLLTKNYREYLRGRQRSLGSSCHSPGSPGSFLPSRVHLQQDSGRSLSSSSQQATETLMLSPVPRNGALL
The experiment in a line: Modulation of URP-mediated rat aortic ring contraction. To be noted: URP alone, percentage of KCl (40 mM) contraction divided by tissue response to URP (10^−6 M), mean ± SEM, n = 22, read-out: URP-mediated contraction Emax, control (no pretreatment). The procedure: (§1) Each replicate (n) was conducted on tissue obtained from at least three different animals. Data represent mean ± SEM.
(§2) Adult male Sprague-Dawley rats (Charles-River) weighing 250–300 g were housed in cages under controlled illumination (12:12 h light–dark cycle), humidity, and temperature (21–23 °C) and had free access to tap water and rat chow. All experimental procedures were performed in accordance with regulations and ethical guidelines from the Canadian Council for the Care of Laboratory Animals and received approvals of the institutional animal care and use committee of the Institut National de la Recherche Scientifique—Centre Armand-Frappier Santé Biotechnologie. As previously described ([17], [18]), the thoracic aorta was cleared of surrounding tissue and then excised from the aortic arch to the diaphragm. Conjunctive tissues were next removed from the thoracic aorta and the vessels were divided into five rings of 4 mm. The endothelium of each aortic ring was removed by gently rubbing the vessel intimal surface. Aortic rings were then placed in a 5 ml organ bath filled with oxygenated normal Krebs–Henseleit buffer. Eighty microliters of a 2.5 M potassium chloride solution (40 mM final concentration) was used to evaluate maximal contractile responses of each vessel. […] Cumulative concentration–response curves to synthetic peptides were obtained by increasing the concentration of each peptide in the remaining organ chambers (10^−11–10^−5 M).

Assay [2] concerns the target T1, rat thoracic aorta rings. The experiment in a line: Rat aortic ring contraction (agonist). Conditions: mean ± SEM. The method, then: as §1, §2
In assay [3] the target is T2, human urotensin II receptor, on HEK 293 cells stably expressing it (human) (UniProt Q9UKP6).
T2 sequence: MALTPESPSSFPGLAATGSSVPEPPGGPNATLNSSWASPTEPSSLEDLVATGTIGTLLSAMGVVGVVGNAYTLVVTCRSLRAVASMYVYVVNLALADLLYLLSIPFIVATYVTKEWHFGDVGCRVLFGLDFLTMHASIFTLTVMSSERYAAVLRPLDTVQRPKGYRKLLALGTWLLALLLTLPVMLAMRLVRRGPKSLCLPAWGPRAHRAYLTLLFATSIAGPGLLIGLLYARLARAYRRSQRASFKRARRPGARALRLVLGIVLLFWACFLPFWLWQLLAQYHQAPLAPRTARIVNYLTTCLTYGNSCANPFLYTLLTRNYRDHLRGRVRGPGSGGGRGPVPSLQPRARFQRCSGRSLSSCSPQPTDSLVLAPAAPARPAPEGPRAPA

The target in assay [4] is T3, human urotensin II receptor, on CHO-K1 cells stably expressing it (human) (UniProt Q9UKP6).
T3 sequence: T2 sequence

The target in assay [5] is T3, human urotensin II receptor, on CHO-K1 cells stably expressing it (human). This is another data set of the same source.
[6] abbreviates: scale: % of the activation induced by hUII.

* marks the point of attachment. Palmitoyl = CCCCCCCCCCCCCCCC(=O)*

The Emax is the greatest response seen or fitted, relative to the assay's reference. Take `CC(C)[C@H](NC(=O)[C@@H]1CSSC[C@H](NC(=O)[C@H](C)N)C(=O)N[C@@H](Cc2ccccc2)C(=O)N[C@@H](Cc2c[nH]c3ccccc23)C(=O)N[C@@H](CCCCN)C(=O)N[C@@H](Cc2ccc(O)cc2)C(=O)N1)C(=O)O` [URP, urotensin II-related peptide, reference compound]: the Emax came to 105 ± 3% at rat thoracic aorta rings [1] and 108 ± 3% on rat thoracic aorta rings [2] (percentage of contraction induced by 40 mM KCl, n = 22). Also, the “contraction pEC50” value at rat thoracic aorta rings [2] (n = 22 (hUII, URP), n = 5 (pepducins)) was determined as 8.10 ± 0.06.

B1: [Trp^1, Leu^2]hUT-Pep3 (peptide)
peptide: Palmitoyl-WLSQRASFKRARR-NH2
SMILES: CCCCCCCCCCCCCCCC(=O)N[C@@H](Cc1c[nH]c2ccccc12)C(=O)N[C@@H](CC(C)C)C(=O)N[C@@H](CO)C(=O)N[C@@H](CCC(N)=O)C(=O)N[C@@H](CCCNC(=N)N)C(=O)N[C@@H](C)C(=O)N[C@@H](CO)C(=O)N[C@@H](Cc1ccccc1)C(=O)N[C@@H](CCCCN)C(=O)N[C@@H](CCCNC(=N)N)C(=O)N[C@@H](C)C(=O)N[C@@H](CCCNC(=N)N)C(=O)N[C@@H](CCCNC(=N)N)C(N)=O
Take B1: in assay [3], the G13 activation (BRET biosensor), HEK 293-hUT cells; pEC50 was 6.51 -log EC50; the Gi activation (BRET biosensor), HEK 293-hUT cells; pEC50 is 10.4 -log EC50; the Gq activation (BRET biosensor), HEK 293-hUT cells; pEC50 was 8.34 -log EC50; the β-arrestin 1 conformational change (BRET biosensor), HEK 293-hUT cells; pEC50 was 8.08 -log EC50. For the same molecule, the β-arrestin 2 conformational change (BRET biosensor), HEK 293-hUT cells; pEC50 in assay [3] was 7.74 -log EC50. In assay [3] (setting [6]), this molecule yielded a G12 activation (BRET biosensor), HEK 293-hUT cells; maximum efficacy at 10^-6 M of 5; a G13 activation (BRET biosensor), HEK 293-hUT cells; Emax of 185; a Gi activation (BRET biosensor), HEK 293-hUT cells; Emax of 97; a Gq activation (BRET biosensor), HEK 293-hUT cells; Emax of 29. Also, in assay [3] (setting [6]), the β-arrestin 1 conformational change (BRET biosensor), HEK 293-hUT cells; Emax is 18 and the β-arrestin 2 conformational change (BRET biosensor), HEK 293-hUT cells; Emax is 19. In assay [4], the IP1 production (IP-One terbium immunoassay), CHO-hUT cells, 40 min; efficacy at 10^-5 M (% of the hUII maximum effect) was determined as 60 and the IP1 production (IP-One terbium immunoassay), CHO-hUT cells, 40 min; pEC50 is < 6 -log EC50. For the same molecule, in assay [5], the ERK1/2 phosphorylation (western blot), CHO-hUT cells, 5 min; Emax (% of the hUII maximum effect) is 56 and the ERK1/2 phosphorylation (western blot), CHO-hUT cells, 5 min; pEC50 was 6.7 -log EC50.

B2: hUT-Pep2 (peptide)
peptide: Palmitoyl-RPLDTVQRPKGY-NH2
SMILES: CCCCCCCCCCCCCCCC(=O)N[C@@H](CCCNC(=N)N)C(=O)N1CCC[C@H]1C(=O)N[C@@H](CC(C)C)C(=O)N[C@@H](CC(=O)O)C(=O)N[C@H](C(=O)N[C@H](C(=O)N[C@@H](CCC(N)=O)C(=O)N[C@@H](CCCNC(=N)N)C(=O)N1CCC[C@H]1C(=O)N[C@@H](CCCCN)C(=O)NCC(=O)N[C@@H](Cc1ccc(O)cc1)C(N)=O)C(C)C)[C@@H](C)O
Turning to B2, in assay [3], the G13 activation (BRET biosensor), HEK 293-hUT cells; pEC50 is 6.33 -log EC50; the Gi activation (BRET biosensor), HEK 293-hUT cells; pEC50 is 10.1 -log EC50; the Gq activation (BRET biosensor), HEK 293-hUT cells; pEC50 was 7.31 -log EC50. In assay [3] (setting [6]), this molecule showed a G13 activation (BRET biosensor), HEK 293-hUT cells; Emax of 154; a Gi activation (BRET biosensor), HEK 293-hUT cells; Emax of 96; a Gq activation (BRET biosensor), HEK 293-hUT cells; Emax of 9; a β-arrestin 2 conformational change (BRET biosensor), HEK 293-hUT cells; maximum efficacy at 10^-6 M of 15. In assay [4], the IP1 production (IP-One terbium immunoassay), CHO-hUT cells, 40 min; efficacy at 10^-5 M (% of the hUII maximum effect) turned out to be 35 and the IP1 production (IP-One terbium immunoassay), CHO-hUT cells, 40 min; pEC50 was < 6 -log EC50. Also, in assay [5], the ERK1/2 phosphorylation (western blot), CHO-hUT cells, 5 min; Emax (% of the hUII maximum effect) was 34 and the ERK1/2 phosphorylation (western blot), CHO-hUT cells, 5 min; pEC50 is 7.26 -log EC50.
